Target: T1, IL-17RC-FL (murine IL-17RC, full length, unspliced, C-terminal Myc tag) (mouse, UniProt Q8K4C2 22-698)
T1 sequence (looked up): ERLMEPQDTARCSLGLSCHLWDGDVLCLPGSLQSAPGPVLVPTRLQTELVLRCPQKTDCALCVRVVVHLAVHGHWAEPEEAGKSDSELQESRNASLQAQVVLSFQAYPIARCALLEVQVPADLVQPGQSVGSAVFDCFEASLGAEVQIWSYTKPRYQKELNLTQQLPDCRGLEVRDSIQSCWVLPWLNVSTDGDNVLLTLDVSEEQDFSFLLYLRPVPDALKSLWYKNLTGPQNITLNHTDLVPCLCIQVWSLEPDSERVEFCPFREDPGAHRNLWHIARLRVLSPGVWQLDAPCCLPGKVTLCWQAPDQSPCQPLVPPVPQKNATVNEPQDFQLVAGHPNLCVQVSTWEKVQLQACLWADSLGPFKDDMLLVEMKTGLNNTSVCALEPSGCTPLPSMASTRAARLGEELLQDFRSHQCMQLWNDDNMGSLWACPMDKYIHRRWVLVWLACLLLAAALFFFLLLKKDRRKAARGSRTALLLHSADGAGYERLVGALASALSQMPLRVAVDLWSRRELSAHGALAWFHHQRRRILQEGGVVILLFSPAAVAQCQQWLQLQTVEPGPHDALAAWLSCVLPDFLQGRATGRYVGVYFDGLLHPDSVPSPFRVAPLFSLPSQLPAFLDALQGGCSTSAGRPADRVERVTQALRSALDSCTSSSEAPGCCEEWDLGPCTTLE
Assay: co-IP

fold induction of co-precipitated phospho-Act1 over the 0 time point: ~6 fold
B1: CFP-tagged murine Act1, larger phosphorylated isoform (phospho-Act1) (natural protein, mouse, UniProt Q8N7N6 1-555, looked up)
chain: MNRSIPVEVDESEPFPSQLLKPIPEYSPEEELEPPAPNTRNMAPSSLSVLQCPPLKLANHQPVSQQVTCLRAKVLEEGEASFFRRHPELGKDISSCSSGASEPESELGALPPEHRFTLTEKRNRWLGSQLSAASPDTGHESDKSDPSLPNALADSFSGGQEMMPRPRPRPGPHRHRAAPDVPTIDTGYDSQPQDVLGIRQLERPLPLTSSCYLQDLPGPLRSRELPPQFELERYPMNAQLLPPHPSPQAPWNCQYYCPGGPYHHQVPHGHGYPPAAAYQQVLQPALPGQVLPGARARGPRPVQKVILNDSSPQDQEERPAQRDFSFPRLPRDQLYRPPSNGVEAPEESLDLPAELRPHGPQAPSLAAVPRPPSNPLARGTLRTSNLPEELRKVFITYSMDTAMEVVKFVNFLLVNGFQTAIDIFEDRIRGIDIIKWMERYLRDKTVMIIVAISPKYKQDVEGAESQLDEDEHGLHTKYIHRMMQIEFISQGSMNFRFIPVLFPNAKKEHVPTWLQNTHVYSWPKNKKNILLRLLREEEYVAPPRGPLPTLQVVPL
modifications: phosphorylated (removed by shrimp alkaline phosphatase; sites not stated)
